In US20120058906A1 (published 2012):
Each block holds one binder with its values, some of them ahead of it.

Key:
[1] = target: T1, rHuman P-Cadherin/Fc Chimera, CF (R&D Systems Cat#861-PC) (human, UniProt P22223 108-654); experiment: ECL (MSD multi-spot), antigen spotted on plate; Fab 176.3 nM; blank spot 346
T1 construct: Bought reagent; also called CDH3; Fc part of the bought chimera not given

[2] = target: T2, rHuman Erythropoietin R/Fc Chimera, CF (R&D Systems Cat#963-ER) (human, UniProt P19235 25-250); experiment: as above
T2 construct: Bought reagent; also called EPO R/Fc; Epo R; Fc part of the bought chimera not given
T2 sequence: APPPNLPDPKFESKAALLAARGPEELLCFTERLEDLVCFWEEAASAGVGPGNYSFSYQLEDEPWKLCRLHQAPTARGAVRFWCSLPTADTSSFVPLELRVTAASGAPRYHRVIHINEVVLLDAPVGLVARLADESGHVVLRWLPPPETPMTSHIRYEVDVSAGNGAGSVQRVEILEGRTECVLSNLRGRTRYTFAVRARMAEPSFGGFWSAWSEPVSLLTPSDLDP

[3] = target: T3, rHuman CD44/Fc Chimera, CF (R&D Systems Cat#3660-CD) (human, UniProt P16070 21-220); experiment: as above
T3 construct: Bought reagent; Fc part of the bought chimera not given

[4] = target: T4, Recombinant Human DLL4 (R&D Systems Cat#1506-D4/CF) (human, UniProt Q9NR61 27-524); experiment: as above
T4 construct: Bought reagent; also called delta-like protein 4

[5] = target: T5, rHuman ErbB2/Fc Chimera, CF (R&D Systems Cat#1129-ER) (human, UniProt P04626 23-652); experiment: as above
T5 construct: Bought reagent; also called HER2/neu; human epidermal growth factor 2 receptor; Fc part of the bought chimera not given

[6] = target: T6, rHuman Notch-1/Fc Chimera, CF (R&D Systems Cat#3647-TK) (human, UniProt P46531 19-526); experiment: as above
T6 construct: Bought reagent; Fc part of the bought chimera not given

[7] = target: T7, rHuman IGF-1 sR (IGF-1 sR), CF (R&D Systems Cat#391-GR) (human, UniProt P08069 31-932); experiment: as above
T7 construct: Bought soluble receptor; also called insulin-like growth factor-1 soluble receptor; IGF-R1

[8] = target: T8, rHuman HGF R/c-MET/Fc Chimera, CF (R&D Systems Cat#358-MT/CF) (human, UniProt P08581 25-932); experiment: as above
T8 construct: Bought reagent; also called HGF R/Fc; hepatocyte growth factor receptor; Fc part of the bought chimera not given

[9] = target: T9, rHuman EGF R/Fc Chimera, CF (R&D Systems Cat#344-ER) (human, UniProt P00533 25-645); experiment: as above
T9 construct: Bought reagent; also called epidermal growth factor receptor; Fc part of the bought chimera not given

[10] = target: T10, rHuman P-Cadherin/Fc Chimera, CF (R&D Systems Cat#861-PC) (human, UniProt P22223 108-654); experiment: ECL (MSD multi-spot), antigen on plate, Fab 50 nM
T10 construct: Bought Fc chimera; also called CDH3; not shown: Fc of the bought chimera

[11] = target: T11, Recombinant Human DLL4 (R&D Systems Cat#1506-D4/CF) (human, UniProt Q9NR61 27-524); experiment: ECL (MSD multi-spot), antigen on plate, Fab 50 nM
T11 construct: Bought recombinant protein; also called delta-like protein 4

[12] = target: T12, rHuman EGF R/Fc Chimera, CF (R&D Systems Cat#344-ER) (human, UniProt P00533 25-645); experiment: ECL (MSD multi-spot), antigen on plate, Fab 50 nM
T12 construct: Bought Fc chimera; also called ErbB-1; not shown: Fc of the bought chimera

[13] = target: T13, rHuman Erythropoietin R/Fc Chimera, CF (R&D Systems Cat#963-ER) (human, UniProt P19235 25-250); experiment: ECL (MSD multi-spot), antigen on plate, Fab 50 nM
T13 construct: Bought Fc chimera; also called EPO R/Fc; Epo R; not shown: Fc of the bought chimera
T13 sequence: T2 sequence

[14] = target: T14, rHuman HGF R/c-MET/Fc Chimera, CF (R&D Systems Cat#358-MT/CF) (human, UniProt P08581 25-932); experiment: ECL (MSD multi-spot), antigen on plate, Fab 50 nM
T14 construct: Bought Fc chimera; also called HGF R/Fc; not shown: Fc of the bought chimera

[15] = target: T15, rHuman IGF-1 sR (insulin-like growth factor-1 soluble receptor), CF (R&D Systems Cat#391-GR) (human, UniProt P08069 31-932); experiment: ECL (MSD multi-spot), antigen on plate, Fab 50 nM
T15 construct: Bought soluble receptor; also called IGF-R1

[16] = target: T16, rHuman CD44/Fc Chimera, CF (R&D Systems Cat#3660-CD) (human, UniProt P16070 21-220); experiment: ECL (MSD multi-spot), antigen on plate, Fab 50 nM
T16 construct: Bought Fc chimera; not shown: Fc of the bought chimera

[17] = target: T17, rHuman Notch-1/Fc Chimera, CF (R&D Systems Cat#3647-TK) (human, UniProt P46531 19-526); experiment: ECL (MSD multi-spot), antigen on plate, Fab 50 nM
T17 construct: Bought Fc chimera; not shown: Fc of the bought chimera

[18] = target: T18, rHuman ErbB2/Fc Chimera, CF (R&D Systems Cat#1129-ER) (human, UniProt P04626 23-652); experiment: ECL (MSD multi-spot), antigen on plate, Fab 50 nM
T18 construct: Bought Fc chimera; also called HER2/neu; not shown: Fc of the bought chimera
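Further: blank spot per well as comparator with Hit at signal to blank ratio of 4 or more.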

ECL signal [1]: 532 | ECL signal [2]: 3520 | ECL signal [3]: 376 | ECL signal [4]: 460 | ECL signal [5]: 448 | ECL signal [6]: 664 | ECL signal [7]: 393 | ECL signal [8]: 418 | ECL signal [9]: 428
B1: Fab VH1-46_IGHD3-10*01_IGHJ4*01 & B3_IGKJ1*01 (Fab, V domains shown)
VH: QVQLVQSGAEVKKPGASVKVSCKASGYTFTSYYMHWVRQAPGQGLEWMGIINPSGGSTSYAQKFQGRVTMTRDTSTSTVYMELSSLRSEDTAVYYCAREYYYGSGSYYNDYFDYWGQGTLVTVSS
VL: not shown
notes: also called IGHV1-46*01

ECL signal [10]: 411 ECL signal | ECL signal [11]: 35300 ECL signal | ECL signal [12]: 350 ECL signal | ECL signal [13]: 574 ECL signal | ECL signal [14]: 257 ECL signal | ECL signal [15]: 257 ECL signal | ECL signal [16]: 262 ECL signal | ECL signal [17]: 355 ECL signal | ECL signal [18]: 397 ECL signal
B2: Fab VH1-46_IGHD6-6*01_IGHJ1*01_S102A_S103P_S104F & L6_IGKJ1*01_S31K (Fab, V domains shown)
VH: QVQLVQSGAEVKKPGASVKVSCKASGYTFTSYYMHWVRQAPGQGLEWMGIINPSGGSTSYAQKFQGRVTMTRDTSTSTVYMELSSLRSEDTAVYYCAREEYAPFSAEYFQHWGQGTLVTVSS
VL: EIVLTQSPATLSLSPGERATLSCRASQSVSKYLAWYQQKPGQAPRLLIYDASNRATGIPARFSGSGSGTDFTLTISSLEPEDFAVYYCQQRSNWPPWTFGQGTKVEIKR
notes: Fab
